This passage reports Kd and koff results from article PMC3443260.

Where two headings read alike, the source gives them in different places.

Assay [1] addresses Flag-tagged mouse GGA2 (mouse) (UniProt Q6P5E6). Put plainly: BLI.
The target is the same in assay [2]. Put plainly: BLI. The source holds these as a separate data set.
Assay [3] has as its target CI-MPR C-terminal DXXLL peptide (Homo sapiens) (UniProt P11717). Put plainly: ITC. Particulars: cited from earlier work.

Chain of Flag-tagged mouse GGA2 (mouse) (Q6P5E6 whole entry): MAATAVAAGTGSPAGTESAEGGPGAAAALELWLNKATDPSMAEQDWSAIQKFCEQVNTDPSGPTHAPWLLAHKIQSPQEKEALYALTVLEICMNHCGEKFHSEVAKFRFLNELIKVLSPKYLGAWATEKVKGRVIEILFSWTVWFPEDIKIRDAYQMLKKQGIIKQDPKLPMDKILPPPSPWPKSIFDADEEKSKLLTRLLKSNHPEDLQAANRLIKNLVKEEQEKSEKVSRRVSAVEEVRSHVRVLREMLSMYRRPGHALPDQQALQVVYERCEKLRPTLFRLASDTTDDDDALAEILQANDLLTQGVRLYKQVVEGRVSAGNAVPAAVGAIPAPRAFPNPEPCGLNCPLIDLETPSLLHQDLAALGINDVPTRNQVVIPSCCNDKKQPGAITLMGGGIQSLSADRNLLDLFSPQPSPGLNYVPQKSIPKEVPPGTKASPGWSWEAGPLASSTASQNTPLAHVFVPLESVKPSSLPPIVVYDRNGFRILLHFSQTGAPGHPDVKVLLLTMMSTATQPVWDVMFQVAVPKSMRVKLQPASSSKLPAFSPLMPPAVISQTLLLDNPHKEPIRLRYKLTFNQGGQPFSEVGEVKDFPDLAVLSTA
Chain of GGA2 VHS (Q9UJY4 30-166): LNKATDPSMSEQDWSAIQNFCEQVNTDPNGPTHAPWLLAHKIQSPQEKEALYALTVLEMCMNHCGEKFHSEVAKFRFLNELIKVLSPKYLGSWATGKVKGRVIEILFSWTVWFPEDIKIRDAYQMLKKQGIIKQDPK

As for “MBP-LRP9 30mer with the C-terminal DXXLL motif mutated to AXXAA (peptide)”, the Kd in assay [1] was 380 nM; in assay [2], 280 nM. In assay [2], this substance had a koff of 0.0059 s⁻¹.

Turning to GGA2 VHS (from UniProt Q9UJY4), the equilibrium dissociation constant (Kd) in assay [3] was 7100 nM.

“MBP-LRP9 30mer containing both DXXLL motifs (peptide)”: in assay [2], the Kd is 150 nM and the koff amounted to 0.0052 s⁻¹.
